Data on 43 molecules can be found in patent US20210388087A1 (Chugai, published 2021).

Residue numbers refer to the chain shown, from its start.

First the molecules themselves.
B1: GLS3000 S56H (antibody, name in Kabat numbering, V domains shown)
VH: QVQLVESGGGVVQPGRSLRLSCAASGFTFSNAWMHWVRQAPGKGLEWVAQIKAKSNNYATYYAESVKGRFTISRDDSKNSLYLQMNSLKTEDTAVYYCRYVHYGAYYGVDAWGQGTTVTVSS
VL: DIVMTQSPLSLPVTPGEPASISCRSSQSLVHSNRNTYLHWYQQKPGQAPRLLIYKVSNRFHGVPDRFSGSGSGTDFTLKISRVEAEDVGVYYCGQGTQVPYTFGQGTKLEIK
notes: one-arm IgG as m2
B2: GLS3000 S56W (antibody, name in Kabat numbering, V domains shown)
VH: B1 VH
VL: B1 VL with H61W
notes: one-arm IgG as m2
B3: GLS3000 T92I (antibody, name in Kabat numbering, V domains shown)
VH: B1 VH
VL: B1 VL with H61S, T97I
notes: one-arm IgG as m2
B4: GLS3000 V51I (antibody, name in Kabat numbering, V domains shown)
VH: B1 VH
VL: B1 VL with V56I, H61S
notes: one-arm IgG as m2
B5: GLS3000 T92P (antibody, name in Kabat numbering, V domains shown)
VH: B1 VH
VL: B1 VL with H61S, T97P
notes: one-arm IgG as m2
B6: GLS3000 V27cS (antibody, name in Kabat numbering, V domains shown)
VH: B1 VH
VL: B1 VL with V30S, H61S
notes: one-arm IgG as m2
B7: GLS3000 T92E (antibody, name in Kabat numbering, V domains shown)
VH: B1 VH
VL: B1 VL with H61S, T97E
notes: one-arm IgG as m2
B8: GLS3000 S56Y (antibody, name in Kabat numbering, V domains shown)
VH: B1 VH
VL: B1 VL with H61Y
notes: one-arm IgG as m2
B9: GLS3000 S56N (antibody, name in Kabat numbering, V domains shown)
VH: B1 VH
VL: B1 VL with H61N
notes: one-arm IgG as m2
B10: GLS3000 V27cL (antibody, name in Kabat numbering, V domains shown)
VH: B1 VH
VL: B1 VL with V30L, H61S
notes: one-arm IgG as m2
B11: GLS3000 S56K (antibody, name in Kabat numbering, V domains shown)
VH: B1 VH
VL: B1 VL with H61K
notes: one-arm IgG as m2
B12: GLS3000 T92S (antibody, name in Kabat numbering, V domains shown)
VH: B1 VH
VL: B1 VL with H61S, T97S
notes: one-arm IgG as m2
B13: GLS3000 S56Q (antibody, name in Kabat numbering, V domains shown)
VH: B1 VH
VL: B1 VL with H61Q
notes: one-arm IgG as m2
B14: GLS3000 T92Y (antibody, name in Kabat numbering, V domains shown)
VH: B1 VH
VL: B1 VL with H61S, T97Y
notes: one-arm IgG as m2
B15: GLS3000 S56R (antibody, name in Kabat numbering, V domains shown)
VH: B1 VH
VL: B1 VL with H61R
notes: one-arm IgG as m2
B16: GLS3000 V51E (antibody, name in Kabat numbering, V domains shown)
VH: B1 VH
VL: B1 VL with V56E, H61S
notes: one-arm IgG as m2
B17: GLS3000 S56V (antibody, name in Kabat numbering, V domains shown)
VH: B1 VH
VL: B1 VL with H61V
notes: one-arm IgG as m2
B18: GLS3000 V94A (antibody, name in Kabat numbering, V domains shown)
VH: B1 VH
VL: B1 VL with H61S, V99A
notes: one-arm IgG as m2
B19: GLS3000 V27cI (antibody, name in Kabat numbering, V domains shown)
VH: B1 VH
VL: B1 VL with V30I, H61S
notes: one-arm IgG as m2
B20: GLS3000 V51D (antibody, name in Kabat numbering, V domains shown)
VH: B1 VH
VL: B1 VL with V56D, H61S
notes: one-arm IgG as m2
B21: GLS3000 V51P (antibody, name in Kabat numbering, V domains shown)
VH: B1 VH
VL: B1 VL with V56P, H61S
notes: one-arm IgG as m2
B22: GLS3000 T97P (antibody, name in Kabat numbering, V domains shown)
VH: B1 VH
VL: B1 VL with H61S, T102P
notes: one-arm IgG as m2
B23: GLS3000 V94E (antibody, name in Kabat numbering, V domains shown)
VH: B1 VH
VL: B1 VL with H61S, V99E
notes: one-arm IgG as m2
B24: GLS3000 T92A (antibody, name in Kabat numbering, V domains shown)
VH: B1 VH
VL: B1 VL with H61S, T97A
notes: one-arm IgG as m2
B25: GLS3000 T31N (antibody, name in Kabat numbering, V domains shown)
VH: B1 VH
VL: B1 VL with T36N, H61S
notes: one-arm IgG as m2
B26: GLS3000 V27cP (antibody, name in Kabat numbering, V domains shown)
VH: B1 VH
VL: B1 VL with V30P, H61S
notes: one-arm IgG as m2
B27: GLS3000 S56L (antibody, name in Kabat numbering, V domains shown)
VH: B1 VH
VL: B1 VL with H61L
notes: one-arm IgG as m2
B28: GLS3000 V27cY (antibody, name in Kabat numbering, V domains shown)
VH: B1 VH
VL: B1 VL with V30Y, H61S
notes: one-arm IgG as m2
B29: GLS3000 T31P (antibody, name in Kabat numbering, V domains shown)
VH: B1 VH
VL: B1 VL with T36P, H61S
notes: one-arm IgG as m2
B30: GLS3000 S56M (antibody, name in Kabat numbering, V domains shown)
VH: B1 VH
VL: B1 VL with H61M
notes: one-arm IgG as m2
B31: GLS3000 V27cE (antibody, name in Kabat numbering, V domains shown)
VH: B1 VH
VL: B1 VL with V30E, H61S
notes: one-arm IgG as m2
B32: GLS3000 S56P (antibody, name in Kabat numbering, V domains shown)
VH: B1 VH
VL: B1 VL with H61P
notes: one-arm IgG as m2
B33: GLS3000 S56I (antibody, name in Kabat numbering, V domains shown)
VH: B1 VH
VL: B1 VL with H61I
notes: one-arm IgG as m2
B34: GLS3000 V94D (antibody, name in Kabat numbering, V domains shown)
VH: B1 VH
VL: B1 VL with H61S, V99D
notes: one-arm IgG as m2
B35: GLS3000 V51G (antibody, name in Kabat numbering, V domains shown)
VH: B1 VH
VL: B1 VL with V56G, H61S
notes: one-arm IgG as m2
B36: GLS3000 T92L (antibody, name in Kabat numbering, V domains shown)
VH: B1 VH
VL: B1 VL with H61S, T97L
notes: one-arm IgG as m2
B37: GLS3000 V27cD (antibody, name in Kabat numbering, V domains shown)
VH: B1 VH
VL: B1 VL with V30D, H61S
notes: one-arm IgG as m2
B38: GLS3000 T31E (antibody, name in Kabat numbering, V domains shown)
VH: B1 VH
VL: B1 VL with T36E, H61S
notes: one-arm IgG as m2
B39: GLS3000 S56T (antibody, name in Kabat numbering, V domains shown)
VH: B1 VH
VL: B1 VL with H61T
notes: one-arm IgG as m2
B40: GLS3000 T92D (antibody, name in Kabat numbering, V domains shown)
VH: B1 VH
VL: B1 VL with H61S, T97D
notes: one-arm IgG as m2
B41: GLS3000 T31I (antibody, name in Kabat numbering, V domains shown)
VH: B1 VH
VL: B1 VL with T36I, H61S
notes: one-arm IgG as m2
B42: GLS3000 T31K (antibody, name in Kabat numbering, V domains shown)
VH: B1 VH
VL: B1 VL with T36K, H61S
notes: one-arm IgG as m2
B43: GLS3000 T31D (antibody, name in Kabat numbering, V domains shown)
VH: B1 VH
VL: B1 VL with T36D, H61S
notes: one-arm IgG as m2

The target in the test is T1, CD3 epsilon homodimer protein (UniProt P07766 23-126).
T1 construct: also called CD3 (CD3 epsilon)
T1 sequence (P07766 23-126): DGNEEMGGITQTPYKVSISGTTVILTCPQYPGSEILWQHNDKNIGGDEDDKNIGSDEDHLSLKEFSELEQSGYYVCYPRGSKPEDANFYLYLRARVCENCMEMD
Description: SPR Biacore T200, CD3e homodimer on chip, vs unaltered GLS3000 antibody.
Description: An appropriate amount of CD3 epsilon homodimer protein was immobilized onto Sensor chip CM4 (GE Healthcare Japan Corp.) by the amine coupling method. Then, the antibody having an appropriate concentration was injected thereto as an analyte and allowed to interact with the CD3 epsilon homodimer protein on the sensor chip. Then, the sensor chip was regenerated by the injection of 10 mmol/L glycine-HCl (pH 1.5). The assay was conducted at 25 degrees C., and HBS-EP+(GE Healthcare Japan Corp.) was used as a running buffer. […] Each parameter was calculated using Biacore T200 Evaluation Software (GE Healthcare Japan Corp.).
In the case of B1, the “ratio of amounts bound (Z=Y/X)” value was determined as 1.05.
On to B2, for which the “ratio of amounts bound (Z=Y/X)” value worked out at 1.38.
In the case of B3, the “ratio of amounts bound (Z=Y/X)” value amounted to 0.34.
On to B4, for which the “ratio of amounts bound (Z=Y/X)” value stood at 0.81.
Consider B5, for which the “ratio of amounts bound (Z=Y/X)” value came to 0.26.
On to B6, for which the “ratio of amounts bound (Z=Y/X)” value was 0.51.
For the molecule B7, the “ratio of amounts bound (Z=Y/X)” value was 0.17.
B8: the “ratio of amounts bound (Z=Y/X)” value worked out at 1.46.
For B9, the “ratio of amounts bound (Z=Y/X)” value amounted to 0.92.
Take B10: the “ratio of amounts bound (Z=Y/X)” value worked out at 0.84.
Consider B11, for which the “ratio of amounts bound (Z=Y/X)” value was 1.46.
Consider B12, for which the “ratio of amounts bound (Z=Y/X)” value came to 0.96.
Consider B13, for which the “ratio of amounts bound (Z=Y/X)” value is 1.04.
For the molecule B14, the “ratio of amounts bound (Z=Y/X)” value is 0.33.
As for B15, the “ratio of amounts bound (Z=Y/X)” value was found to be 1.36.
The value for B16 was 0.64; that for B17 was 0.95.
For the molecule B18, the “ratio of amounts bound (Z=Y/X)” value amounted to 1.05.
Turning to B19, the “ratio of amounts bound (Z=Y/X)” value amounted to 0.96.
Turning to B20, the “ratio of amounts bound (Z=Y/X)” value was 0.33.
Turning to B21, the “ratio of amounts bound (Z=Y/X)” value turned out to be 0.32.
B22: the “ratio of amounts bound (Z=Y/X)” value was determined as 0.31.
Under B23 stands 0.5; under B24, 0.63; under B25, 0.32.
B26: the “ratio of amounts bound (Z=Y/X)” value came out at 0.3.
In the case of B27, the “ratio of amounts bound (Z=Y/X)” value was determined as 1.02.
As to B28, the “ratio of amounts bound (Z=Y/X)” value came to 0.77.
Under B29 stands 0.31; under B30, 1.05.
As for B31, the “ratio of amounts bound (Z=Y/X)” value was 0.61.
Consider B32, for which the “ratio of amounts bound (Z=Y/X)” value was 0.95.
Regarding B33, the “ratio of amounts bound (Z=Y/X)” value was determined as 0.99.
Under B34 stands 0.89; under B35, 0.84; under B36, 0.42.
Under B37 stands 0.32; under B38, 0.49; under B39, 0.97.
Consider B40, for which the “ratio of amounts bound (Z=Y/X)” value amounted to 0.18.
As to B41, the “ratio of amounts bound (Z=Y/X)” value was found to be 0.97.
With B42, the “ratio of amounts bound (Z=Y/X)” value amounted to 1.04.
For the molecule B43, the “ratio of amounts bound (Z=Y/X)” value was determined as 0.23.
